In the domain aggregation screens of Martell et al. (2025):

Experiment: soluble fraction after stress (log2 fold change); higher = more stays soluble; pooled small domains, quantitative proteomics
Conditions: stress: 75 degC
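Further: 20 min heating vs room temperature control held 20 min.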

Going from “HMSFKQARFMMDAANGKALAWLYSHAEVLDRKDQGENIEIHVMISPADLSRFVNAFGYQPVQS” to “HMSFMFEISVIRSQYNMQDPESKTGFYNAIAKKLLEFPEKLERDNYTEAVAREYMIPETDLKNLVNSMGG”, the “soluble fraction (log2)” value falls from -1.07 to -3.12.

Compared with “HMSFNGTILSNYQKTYPNLAKFTYDQANDALVYEGNFIKLNGYGLSRIDPVFFNMNPDEIFIFIKNG”, “HMSFNTNENKNLLWELMNKHNLFKDIDNQHYQEVQKLFEEEIVFISNNNKSLDLVEQNKKFLSSIITKLNK” is higher in “soluble fraction (log2)” value: -3.85 for the first, -1.84 for the second.

Compared with “HMSFPQVELNTNKGRIVLELNSEKAPKTVANFLEYVRDGFYDGVIFHRVIDGFMIQGGGFDENFKEKA”, “HMSFSPYLVRVSITDLNIRKGPGTNYAKTGKFTGKGVFTIVEMQTGKGSDTGWGRLKSGAGWISLDYTEKI” is lower in “soluble fraction (log2)” value: -0.6 for the first, -3.47 for the second.

Going from “HMSFSQNIGKRIREERLRLNLTQEKLAEDVNLSMAYIGQVERGDRSLTLDNLIIVAKRLGVTIDYLLS” to “HMSFTSQSVLIEIVRGTTQLTPLAAAVGANKREVVLAVHRLKQRGLVVSAGLGQYAATEAGRAFLTAGREV”, the “soluble fraction (log2)” value rises from -4.13 to -3.43.

First: HMSFYSVVISQDGSMLVAENRNEIYSNEELLELASEVNEKTGTIGTIGSLMYYKADKGGYTLITFLDNS
Second: HMSGALDTVVGIRMLKLLSTPIEKSKAFQVGIINKDGKKLRDPTSGERQHYTFLNRFVFKVQYALMRS
The “soluble fraction (log2)” value of the first is lower: -4.18 for the first, -0.549 for the second.

Going from “HMSGDYRPLYPNLPESEKSEAFNLLAGSALPARLDDRTGDIMVPADRYYEARMILANAGFAD” to “HMSGEMGIIVAKRLPIRSEPDELATRAFVLKAGTRVKIVKHLNGWLEIVHDGKAGYVQDLEVYVRVIG”, the “soluble fraction (log2)” value falls from 0.17 to -0.806.

Going from “HMSGEPVKSTLPGNVFKILVAVGDSVKKGQRMFVLEAMKMEIDVNAPKDGLVTSIEVQQGQTVANGQILAK” to “HMSGIESIVIPLKGLDFDMISSTLTPQLKQAIKYDKQSDSIILVGTNAKVNIIAKQVNAMVEVYKLKT”, the “soluble fraction (log2)” value falls from -0.0981 to -1.81.

“HMSGIGTTIKMLRENKNISQEELGNVLGVSDKTISSWEINRTEPKMGIVQLLADYFGVSTDYLIKG” and “HMSGILINGELYKPGEQMSLKQRLSIQARIQMQGEDTVKPEMLKDFYNSGGPLSKEESSEYMKSQN” are within 0.2 log units of each other in “soluble fraction (log2)” value: -0.447 for the first, -0.515 for the second.

Going from “HMSGIQNNFITRLKKVLAPTIGIAEEISDLLNISIDSAYRRIRGETDFTFEEIYIITRKHKISIDEIYG” to “HMSGIVPAAPPLRPDLDIKWHTGDKVRHAKWGEGTIVSVKGEGEETELKIAFPGQGIRPFMQKYAPITR”, the “soluble fraction (log2)” value rises from -3.88 to 0.218.

Compared with “HMSGLEDIKKKILEDAGIKKGSVKFVKVDKDYDDGIWKYEIDFVYDGKEYEYEIEVETGKILSRKTEKSD”, “HMSGLVPAIGTKGEEGYIRESDIPGSNVKNPEEALAYMEWLKTQPSELLIPLYDEQGNVIGQFAVS” is higher in “soluble fraction (log2)” value: 0.00588 for the first, 0.461 for the second.

“HMSGMEKLAIQEIEKEIKSFVKGDILIELTGKNRATAYVSEKNVGALIGKKGERINSIEKRLGVGIDVRPY” and “HMSGMNSDHRVNGNIHTFLIQHDLGTKWSVFTEQLLKQVFRSFLPDKELNFQTTDSTVILKVSLGSDFNEH” are within 0.2 log units of each other in “soluble fraction (log2)” value: -0.23 for the first, -0.0399 for the second.

Going from “HMSGPAEDLLAIEGMDKELAYELAARGIRTRDELADQSLDELEAVPGLDPVRAGQLIMAARAHLFENAGQ” to “HMSGRSVSYSEFMSRVEAGQVSSVTLDGERVEVTGSDGSRYVTIAPSDATLTDKLVAKGVEVRADP”, the “soluble fraction (log2)” value rises from 0.0744 to 0.462.

Going from “HMSGSKEQQIVILNNILERQLQAFGLQGNREFPMVTLKNIYNSLSKIIENAGLKNVENYFVNPEQGKQM” to “HMSGTFIGGELVKPGEPLTPMQRAAITMGLQMGNTYSPEIMEKYNNAGGSPSKEEFENYQKNKS”, the “soluble fraction (log2)” value rises from -0.0735 to 0.216.

Going from “HMSHGFFELKTTQKEALIKLLDSHPNFTHTKTEADLTTAFLKLPMDAEQFNKLLFTNGIVLSHLVKRK” to “HMSHGYVEMQAKDDQVLLAALKNHPWFEKVSIDEETGLTKAILTQPIEAEELNSMLFEKGIVLSHLVKRK”, the “soluble fraction (log2)” value rises from -0.581 to 0.288.

Compared with “HMSHISLGQRYKIEGYLQINLKRTQIAKEIGLPKKTVNQEIKRNSNPQTGIYKAEEAHQLYLDRMQKKRK”, “HMSHKYKLTVPETGEGTRVDKFLSSALTELSRTRLKSLIEEGQVTLGGVKLTNPSHRVKSGDELNIEIPVP” is higher in “soluble fraction (log2)” value: -0.335 for the first, 0.018 for the second.

“HMSHPNAPLTPEGRRRLAVLIVEDGWTIRRAAERFQVSPATASKWARRYRAGESLTDRSSRP” and “HMSHSDMEEWTDAVRSRRKKLGLTQVQIARRLGVTSHHFSQIESGRTIPSASLQIEIDRLLKNWND” are within 0.2 log units of each other in “soluble fraction (log2)” value: -1.85 for the first, -1.73 for the second.

Going from “HMSHSVLIDISQLRIGMYIQLDVGWMHHPFPVSSFRVASLEQIEALRTLNLAQVRYFPAKSDPV” to “HMSIAEMSGARKSAILLLALDEDSAAEIFKYLSAGEVQEISMEMAKLNQVSHDDMKAVLEAFHKETEEFV”, the “soluble fraction (log2)” value rises from -3.51 to -0.821.

Compared with “HMSIAKIIGDRIRAYRNQKGWSQEYLAEKADVHHTYIGQLERGEKNATIESISKIAGALGVSLSRLFEN”, “HMSIEHVPGYTTLSKREQEIVHALLTRKTPEELADDLSISINTLNKHISHIYHKLGIRGRMQLFDYA” is lower in “soluble fraction (log2)” value: -0.659 for the first, -1.1 for the second.

Compared with “HMSIEIKTIDVKHADLFQLQDILRNLYPELNIVPDQRNNKLILQGKRELLVEAERLTLQLDTE”, “HMSIESPEEFNAKFPPGSEIYATNIQKNAIVQSPANAKGDVEILANSMRLTINFRFISKRDT” is lower in “soluble fraction (log2)” value: 0.248 for the first, -1.6 for the second.
